The record followed here is US20030054411A1, “GPR motifs and uses thereof” (priority 2001, published 2003).

For assay [1], the system named is brain G-protein. Description: GTPγS binding assay, brain G-protein. It counts as biochemical, bovine. As to conditions: AGS proteins. How it is done: A and B, the carboxyl region of AGS3 (Pro^463-Ser^650) containing all four GPR repeats was generated as a His-tagged (A) or GST fusion (B) protein for protein interaction assays as described under Examples. All interactions were done in the presence of 10 μM GDP, and the input lanes represent one-tenth of the G-protein used in each interaction assay. A, Giα1 (75 nM) was incubated with 300 nM His-tagged AGS3-GPR in the absence and presence of increasing amounts of the GPR peptide, after which bound Giα was isolated on a nickel affinity matrix, and samples were processed for immunoblotting with Giα antisera. The blot in the upper panel of A was stripped and reprobed with AGS3 antisera to provide internal controls for protein loading. B, Giα2 (75 nM) was incubated with 300 nM AGS3-GPR or GST in the presence and absence of 100 μM GPR consensus peptide, GPR peptide Q15A, or GPR peptide R23F. […] C and D, GTPγ^35S binding to G-proteins (100 nM) was measured in the absence and presence of peptides as described in the Examples. Data are expressed as the percent of specific binding (˜5 pmol) observed in the absence of peptide and represent the means±S.E. derived from three experiments. […]
GTPγS Binding Assays—GTPγS binding assays were generally conducted as described (39). […] Radioactivity bound to the filters was determined by liquid scintillation counting. […]

In assay [2] the target is T1, Giα2 (Homo sapiens, UniProt P04899).
T1 construct: made in house; host or cells: Sf9 insect cells
T1 sequence (P04899 whole entry): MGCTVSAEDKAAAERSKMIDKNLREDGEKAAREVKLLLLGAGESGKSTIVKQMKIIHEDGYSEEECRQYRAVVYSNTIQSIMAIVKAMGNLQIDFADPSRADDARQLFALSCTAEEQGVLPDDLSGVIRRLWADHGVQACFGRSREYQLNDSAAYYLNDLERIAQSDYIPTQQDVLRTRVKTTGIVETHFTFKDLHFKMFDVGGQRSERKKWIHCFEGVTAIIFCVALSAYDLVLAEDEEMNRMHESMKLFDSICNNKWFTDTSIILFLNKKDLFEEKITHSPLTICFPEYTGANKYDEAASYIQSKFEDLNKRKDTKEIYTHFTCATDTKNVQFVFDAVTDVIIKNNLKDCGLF
Description: GTPγS binding assay, Giα2. It counts as biochemical. To be noted: AGS proteins. How it is done: A and B, the carboxyl region of AGS3 (Pro^463-Ser^650) containing all four GPR repeats was generated as a His-tagged (A) or GST fusion (B) protein for protein interaction assays as described under Examples. All interactions were done in the presence of 10 μM GDP, and the input lanes represent one-tenth of the G-protein used in each interaction assay. A, Giα1 (75 nM) was incubated with 300 nM His-tagged AGS3-GPR in the absence and presence of increasing amounts of the GPR peptide, after which bound Giα was isolated on a nickel affinity matrix, and samples were processed for immunoblotting with Giα antisera. The blot in the upper panel of A was stripped and reprobed with AGS3 antisera to provide internal controls for protein loading. B, Giα2 (75 nM) was incubated with 300 nM AGS3-GPR or GST in the presence and absence of 100 μM GPR consensus peptide, GPR peptide Q15A, or GPR peptide R23F. The immunoblots presented in A and B are representative of three experiments. C and D, GTPγ^35S binding to G-proteins (100 nM) was measured in the absence and presence of peptides as described in the Examples. Data are expressed as the percent of specific binding (˜5 pmol) observed in the absence of peptide and represent the means±S.E. derived from three experiments. The concentration of peptides in D is 10 μM.
GTPγS Binding Assays—GTPγS binding assays were generally conducted as described (39). G-proteins (100 nM) were preincubated for 20 min at 24° C. in the presence and absence of GPR peptides. Binding assays (duplicate determinations) were initiated by addition of 0.5 μM GTPγS (4.0×10^4 dpm/pmol), and incubations (total volume=50 μl) were continued for 30 min at 24° C. Both preincubations and GTPγS binding assays were conducted in binding buffer containing 2 mM MgCl2. Reactions were terminated by rapid filtration through nitrocellulose filters with 4×4-ml washes of stop buffer (50 mM Tris-HCl, 5 mM MgCl2, 1 mM EDTA, pH 7.4, at 4° C.). Radioactivity bound to the filters was determined by liquid scintillation counting. Nonspecific binding was defined by 100 μM […].
For orientation: GTPγS resists hydrolysis and so accumulates on activated G proteins.

Assay [3] deals with pheromone response pathway. Description: Yeast expression cloning system, growth assay. Type of assay: cell-based, Saccharomyces cerevisiae. As to conditions: for activity in the presence of Giα2 G204A mutant or RGS4: G204A Giα2 strain or RGS4 overexpression; for growth in yeast expression cloning system: Giα2 yeast strain, selective medium; for function in null Ste5 genetic background: yeast strain lacking Ste5. An excerpt: (A) Three cDNA clones (#34, #37 and #53) were isolated from a screen of 1.1×10^6 yeast transformants based upon their ability to promote growth in a galactose-dependent manner in the yeast expression cloning system (5). B) Analysis of the cDNA clones in spot growth assays using yeast strains lacking STE20, STE5 or STE4. Control (Non-induced/no selection)—glucose media lacking uracil and tryptophan (UT). Non-induced/selection—glucose media lacking uracil/tryptophan/histidine (UTH) and containing the histidine analog aminotriazole (AT) at 1 mM. Induced/selection—galactose media lacking UTH and containing 1 mM AT. WT—wild type strain CY1316/1183. cDNA #34 was active in the absence of a functional STE5 and thus was not evaluated (black circles in key) in yeast strains lacking STE4 or STE20. For spot growth assays, ˜2,000 cells suspended in water were spotted on appropriate medium and the plates were incubated at 30° for 2 days prior to photography. Experiments in (A, B) were repeated three times with similar results.
(A) Bioactivity of cDNA #37 and 53 in yeast strains expressing different Gα subunits. The Gpa1, Giα2Gpa1(1-41), Giα3Gpa1(1-41) and Gα16Gpa1(1-41) yeast strains expressed similar amounts of G-protein as determined by immunoblotting with Gpa1-specific antisera. Each series of experiments include data obtained in the absence of Gα to indicate the signal obtained when the action of Gβγ is not limited by reformation of heterotrimer. Data are presented as the mean±S.E.M of three experiments with duplicate determinations. (B) Interaction of AGS2 and AGS3 with G-proteins. AGS2 and the bioactive AGS3 peptide (74 amino acids) beginning at the first in frame methionine were generated as GST-fusion proteins in bacteria and purified using a glutathione affinity matrix. AGS2 and AGS3 GST fusion proteins were incubated with G-protein subunits (Gα=60-80 nM, Gβγ=40 nM, fusion protein=˜300 nM, total volume=250 ul) for 12 hrs at 4° C. GDP=10 uM. GTPγS=10 uM plus 5 mM MgCl2. Proteins were then adsorbed to glutathione matrix and retained G-protein subunits identified by immunoblotting following gel electrophoresis. Giα2 was generated in Sf9 cells as an amino terminal his6-tagged protein and was detected on membrane transfers using anti-Xpress antisera (Invitrogen). Bovine brain Gβγ was detected on membrane transfers with Gβ antisera. Input refers to 20 ul of the incubation mixture. The results presented are representative of four separate experiments. […] C) Effect of G204A Giα2 substitution and RGS4 on the functionality of AGS proteins. The G204A Giα2 yeast strain and the system used for over expression of RGS4 are described in detail in reference 5. Protein expression was confirmed by immunoblotting. AGS 1 was discovered in a similar screen using a human liver cDNA library (5, 7). WT—wild type strain CY1316/1183 containing Giα2 as described for the original yeast screen. RGS4 was overexpressed in the CY1316/1183 yeast strain. Similar results were obtained in three experiments.
Generation and screening of cDNA libraries. The NG108-15 cell line was propagated as previously described (4). mRNA was prepared from twenty 100 mm confluent plates of cells and used to generate a cDNA library in the yeast expression vector pYES2. The library was constructed by standard procedures using reagents from Stratagene. Analysis of individual transformants indicated cDNA inserts ranging from 400 to 3000 nt with ˜70-80% of the transformants containing cDNA inserts. The primary transformants were then amplified by solid phase agarose growth for 48 hr and plasmid DNA isolated by column fractionation (Qiagen). The NG108-15 cDNA library was then screened for activators of the pheromone response pathway as described (5). We used a his3 far1 yeast strain containing a genomic integration of the FUS1p-HIS3 reporter construct and lacking both the native pheromone response receptor Ste3 and Gpa1 Gα subunit. […]

As to “AGS2: Activator of G-protein Signalling 2, protein identical to mouse Tctex1, isolated from NG108-15 cDNA library”, the “effect on GTPγ35S binding to heterotrimeric brain G-protein” value in assay [1] is given as “did not alter”. The “effect on GTPγ35S binding to Giα2” value in assay [2] is listed as “did not alter”. In assay [3], the “activity in the presence of Giα2 G204A mutant or RGS4” value was “still active”, the “growth in yeast expression cloning system” value is “promoted growth in a galactose-dependent manner”, the “function in null Ste5 genetic background” value was “did not function” and the “activity in yeast strains lacking Ste20 or Ste4” value is “inactive”.

B1: AGS3: Activator of G-protein Signalling 3; bioactive 74 amino acid fragment isolated in yeast screen, tested as GST fusion (protein)
chain: MLIKYQSSRIDDQRCPPPDVLPRGPTMPDEDFFSLIQRVQAKRMDEQRVDLAGSPDQEASGLPDPRQQCPPGAS
modifications: left off: a dimerising Fc or GST
Regarding B1, the “effect on GTPγ35S binding to heterotrimeric brain G-protein” value in assay [1] is listed as “did not alter”. The “effect on GTPγ35S binding to Giα2” value in assay [2] is listed as “did not alter”. For the same molecule, in assay [3], the “activity in the presence of Giα2 G204A mutant or RGS4” value is “still active”, the “growth in yeast expression cloning system” value is on record as “promoted growth in a galactose-dependent manner”, the “function in null Ste5 genetic background” value is reported as “did not function” and the “activity in yeast strains lacking Ste20 or Ste4” value is “inactive”.
